Experimental data published in patent US20240270821A1, “GIP/GLP1/GCG TRI-RECEPTOR AGONISTS AND USES THEREOF” (priority 2023, published 2024).
Starred links: 1 amine or outer side, 2 acyl side, 3 side chain; linkers in the order of their positions; H or OH if unused. Non-standard residues stand in square brackets, D forms with d. Groups on a side chain read outwards from the residue. No end group written: not given here. *: point of attachment. C20 diacid = O=C(O)CCCCCCCCCCCCCCCCCCC(=O)*; γGlu = O=C(O)[C@H](CCC(=O)[*:2])N[*:1]; αMeL = CC(C)C[C@](C)(N)C(=O)O; AEEA = NCCOCCOCC(=O)O; Aib = CC(C)(N)C(=O)O

T1: human GIP receptor (human) (UniProt P48546)
T1 sequence (looked up): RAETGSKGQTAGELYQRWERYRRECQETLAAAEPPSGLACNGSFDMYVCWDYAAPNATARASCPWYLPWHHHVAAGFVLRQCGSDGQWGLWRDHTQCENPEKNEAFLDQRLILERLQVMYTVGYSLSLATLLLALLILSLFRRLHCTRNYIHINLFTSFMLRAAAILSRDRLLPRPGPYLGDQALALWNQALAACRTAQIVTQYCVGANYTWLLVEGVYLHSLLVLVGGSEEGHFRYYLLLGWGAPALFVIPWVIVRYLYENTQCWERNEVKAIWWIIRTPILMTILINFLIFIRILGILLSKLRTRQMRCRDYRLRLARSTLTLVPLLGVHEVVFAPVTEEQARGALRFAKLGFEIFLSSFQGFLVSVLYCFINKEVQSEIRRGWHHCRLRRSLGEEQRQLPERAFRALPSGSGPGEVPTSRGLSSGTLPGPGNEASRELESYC


Experiments:
Test in all cases: cell-based or functional assay
[1] = molecular target: human glucagon receptor (human) (UniProt P47871)
[2] = molecular target: T1, human GIP receptor (human)
[3] = molecular target: human GLP1-R (SNAP-GLP-1R expressed in HEK293 cells) (human) (UniProt P43220)
[4] = molecular target: hGLP-1R (Homo sapiens, UniProt P43220)
Chain of hGLP-1R (P43220 24-463): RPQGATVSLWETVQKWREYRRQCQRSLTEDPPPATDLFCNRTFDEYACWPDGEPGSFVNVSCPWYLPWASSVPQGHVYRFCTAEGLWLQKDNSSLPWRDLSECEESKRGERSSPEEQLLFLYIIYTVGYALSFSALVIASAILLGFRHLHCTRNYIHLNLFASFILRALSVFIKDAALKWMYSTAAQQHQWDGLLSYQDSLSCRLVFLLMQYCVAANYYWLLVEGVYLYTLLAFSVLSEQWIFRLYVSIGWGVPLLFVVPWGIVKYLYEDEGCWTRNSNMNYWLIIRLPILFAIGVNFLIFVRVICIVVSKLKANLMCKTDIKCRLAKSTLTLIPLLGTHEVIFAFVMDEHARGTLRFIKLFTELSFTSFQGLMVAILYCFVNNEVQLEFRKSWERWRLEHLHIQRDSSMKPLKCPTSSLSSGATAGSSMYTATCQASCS

Chain of human GLP1-R (SNAP-GLP-1R expressed in HEK293 cells) (human) (P43220 24-463): as above
Chain of human glucagon receptor (human) (P47871 26-477): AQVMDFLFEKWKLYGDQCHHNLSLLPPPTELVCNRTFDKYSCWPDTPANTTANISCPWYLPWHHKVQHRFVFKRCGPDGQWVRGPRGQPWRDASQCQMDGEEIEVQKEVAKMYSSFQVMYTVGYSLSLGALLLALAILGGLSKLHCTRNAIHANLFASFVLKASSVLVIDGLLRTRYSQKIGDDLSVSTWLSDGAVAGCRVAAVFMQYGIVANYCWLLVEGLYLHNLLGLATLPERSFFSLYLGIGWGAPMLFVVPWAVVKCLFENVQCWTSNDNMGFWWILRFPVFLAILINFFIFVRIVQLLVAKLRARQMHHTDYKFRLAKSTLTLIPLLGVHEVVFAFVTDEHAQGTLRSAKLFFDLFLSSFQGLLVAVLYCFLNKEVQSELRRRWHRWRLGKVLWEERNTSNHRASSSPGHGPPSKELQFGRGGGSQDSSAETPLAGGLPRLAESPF

| Binder | Relative cAMP EC50 [1] | cAMP Rel EC50 (in the presence of 1% HSA) [1] | Relative cAMP EC50 [2] | cAMP Rel EC50 (in the presence of 1% HSA) [2] | GLP1R Internalization EC50 [3] | Internalization % TOP [3] | Relative cAMP EC50 [4] | cAMP Rel EC50 (in the presence of 1% HSA) [4] | cAMP Rel EC50, nM (in the presence of 1% HSA) [1] | cAMP Rel EC50, nM (in the presence of 1% HSA) [2] | cAMP Rel EC50, nM (in the presence of 1% HSA) [4] |
| --- | --- | --- | --- | --- | --- | --- | --- | --- | --- | --- | --- |
| Y[Aib]QGTFTSDFSK[αMeL]LDKK([AEEA-γGlu-C20 diacid])AQQAFIEYLLA[Aib]GPSSGEPPPSEG-NH2 [Example 19] | 2.35 nM | 1010 nM | 0.228 nM | 66.2 nM | 52.4 nM | 72.6% | 3.96 nM | 1310 nM |  |  |  |
| YXQGTFTSDFSXXLDKKAQXAFIEYLLAGGPSSGEPPPEGE (synthetic construct; SITE 2: note = 2-Aminoisobutyric Acid; SITE 12: note = L-ornithine; SITE 13: note = alpha-methyl-leucine; SITE 17: note = Lysine is chemically modified through conjugation of the epsilon-amino group of the Lysine side chain with (2-[2-(2-Amino-ethoxy)-ethoxy]-acetyl)-(gamma-Glu)) [Example 98] | 6.91 nM |  | 0.179 nM |  | 56 nM | 49.3% | 4.35 nM |  | 867 nM | 33.8 nM | 660 nM |
| YXQGTFTSDFSKXLDKKAQXAFIEYLLAGGPSSGEPPPSSG (synthetic construct; SITE 2: note = 2-Aminoisobutyric Acid; SITE 13: note = alpha-methyl-leucine; SITE 17: note = Lysine is chemically modified through conjugation of the epsilon-amino group of the Lysine side chain with (2-[2-(2-Amino-ethoxy)-ethoxy]-acetyl)-(gamma-Glu)-CO-(CH2) 18-CO2H; SITE 20: n) [Example 7] | 5.05 nM | 1210 nM | 0.203 nM | 50.6 nM | 52.6 nM | 76.3% | 2.11 nM | 494 nM |  |  |  |
| YXQGTFTSDFSKXLDKKAQXAFIEYLLAGGPSSGEPPPSEG (Aib, αMeL; acyl on Lys; C-terminal amide; synthetic construct; SITE 2: note = 2-Aminoisobutyric Acid; SITE 13: note = alpha-methyl-leucine; SITE 17: note = Lysine is chemically modified through conjugation of the epsilon-amino group of the Lysine side chain with (2-[2-(2-Amino-ethoxy)-ethoxy]-acetyl)-(gamma-Glu)-CO-(CH2) 16-CO2H; SITE 20: n) [Example 22] | 5.42 nM | 532 nM | 0.246 nM | 81 nM | 41.9 nM | 64.7% | 2.94 nM | 592 nM |  |  |  |
| YXQGTFTSDFSKXLDKKAQXAFIEWLLAGGPSSGEPPPSGE (synthetic construct; SITE 2: note = 2-Aminoisobutyric Acid; SITE 13: note = alpha-methyl-leucine; SITE 17: note = Lysine is chemically modified through conjugation of the epsilon-amino group of the Lysine side chain with (2-[2-(2-Amino-ethoxy)-ethoxy]-acetyl)-(gamma-Glu)-CO-(CH2) 18-CO2H; SITE 20: n) [Example 21] | 12.4 nM | 1510 nM | 0.218 nM | 29.1 nM | 87.6 nM | 72.5% | 2.7 nM | 324 nM |  |  |  |
| YXQGTFTSDFSRXLDKKAQXAFIEYLLEXGPSSGAPPPSGS (synthetic construct; SITE 2: note = 2-Aminoisobutyric Acid; SITE 13: note = alpha-methyl-leucine; SITE 17: note = Lysine is chemically modified through conjugation of the epsilon-amino group of the Lysine side chain with (2-[2-(2-Amino-ethoxy)-ethoxy]-acetyl)2-(gamma-Glu)-CO-(CH2 )16-CO2H; SITE 20:) [Example 80] | 7.44 nM |  | 0.0593 nM |  | 35.8 nM | 48.2% | 2.55 nM |  | 1190 nM | 10.1 nM | 627 nM |
| YXQGTFTSDFSKXLDKKAQXAFIEYLLEGGPSSGAPPPGEG (synthetic construct; SITE 2: note = 2-Aminoisobutyric Acid; SITE 13: note = alpha-methyl-leucine; SITE 17: note = Lysine is chemically modified through conjugation of the epsilon-amino group of the Lysine side chain with (2-[2-(2-Amino-ethoxy)-ethoxy]-acetyl)2-(gamma-Glu)-CO-(CH2 )18-CO2H; SITE 20:) [Example 17] | 8.33 nM | 2040 nM | 0.317 nM | 91.7 nM | 66.2 nM | 72.2% | 2.96 nM | 543 nM |  |  |  |
| YXQGTFTSDFSKXLDKKAQXAFIEYLLAGGPSSGAPPPSEG (synthetic construct; SITE 2: note = 2-Aminoisobutyric Acid; SITE 13: note = alpha-methyl-leucine; SITE 17: note = Lysine is chemically modified through conjugation of the epsilon-amino group of the Lysine side chain with (2-[2-(2-Amino-ethoxy)-ethoxy]-acetyl)-(gamma-Glu)-CO-(CH2) 18-CO2H; SITE 20: n) [Example 10] | 7.62 nM | 1640 nM | 0.226 nM | 43 nM | 79.2 nM | 71.9% | 1.85 nM | 375 nM |  |  |  |
| YXQGTFTSDFSXXLDKKAQXAFIEYLLAGGPSSGEPPPSGE (synthetic construct; SITE 2: note = 2-Aminoisobutyric Acid; SITE 12: note = L-ornithine; SITE 13: note = alpha-methyl-leucine; SITE 17: note = Lysine is chemically modified through conjugation of the epsilon-amino group of the Lysine side chain with (2-[2-(2-Amino-ethoxy)-ethoxy]-acetyl)-(gamma-Glu)) [Example 97] | 6.73 nM |  | 0.176 nM |  | 51.9 nM | 50.7% | 3.23 nM |  | 1270 nM | 23.9 nM | 605 nM |
| YXQGTFTSDFSKXLDKKAQXAFIEYLLAGGPSSGAPPPSSG (synthetic construct; SITE 2: note = 2-Aminoisobutyric Acid; SITE 13: note = alpha-methyl-leucine; SITE 17: note = Lysine is chemically modified through conjugation of the epsilon-amino group of the Lysine side chain with (2-[2-(2-Amino-ethoxy)-ethoxy]-acetyl)-(gamma-Glu)-CO-(CH2) 18-CO2H; SITE 20: n) [Example 13] | 7.19 nM | 1670 nM | 0.196 nM | 29.2 nM | 53.3 nM | 74.7% | 1.78 nM | 282 nM |  |  |  |
